The target of assay [1] is GluA2 (modified calcium-permeable rat GluA2(Q) flip subunit, GluA2*) (rat). Nature of the assay: cryo-EM structure; complex co-purified from HEK293S GnTI− cells transduced with GluA2–γ5 (no antagonists in the medium) by the streptavidin affinity tag and SEC in 150 mM NaCl, 20 mM Tris pH 8.0, 0.005% CHS, 0.05% digitonin, 1 mM βME; grids with 100 µM ZK, no ligand (apo), 100 µM ZK + 100 µM PMP, or 10 mM Glu.

Assay [2] shares this target.
Assay [3] deals with GluA2–γ5 fusion construct (N terminus of γ5 covalently linked to the C terminus of GluA2) (rat | mouse) (UniProt Q8VHW4).
Assay [4] has as its target GluA2 (modified calcium-permeable rat GluA2(Q) flip subunit, GluA2*) (rat). This is another data set of the same source.
The target of assay [5] is GluA2–γ5 fusion construct (N terminus of γ5 covalently linked to the C terminus of GluA2) (rat | mouse) (UniProt Q8VHW4). The source holds these as a separate data set.
The target is the same in assay [6]. Nature of the assay: cryo-EM structure; complex co-purified from HEK293S GnTI− cells transduced with GluA2–γ5 (no antagonists in the medium) by the streptavidin affinity tag and SEC in 150 mM NaCl, 20 mM Tris pH 8.0, 0.005% CHS, 0.05% digitonin, 1 mM βME; grids with 100 µM ZK, no ligand (apo), 100 µM ZK + 100 µM PMP, or 10 mM Glu.
Assay [7] concerns the target GluA2 (modified calcium-permeable rat GluA2(Q) flip subunit, GluA2*) (rat). The source holds these as a separate data set.
Assay [8] concerns the target GluA2–γ5 fusion construct (N terminus of γ5 covalently linked to the C terminus of GluA2) (rat | mouse) (UniProt Q8VHW4). This is another data set of the same source.

B1: TARP γ5 (C-terminally truncated mouse subunit, Cacng5, residues S2-E207) (domain or fragment)
chain: SACGRKALTLLSSVFAVCGLGLLGIAVSTDYWLYLEEGIILPQNQSTEVKMSLHSGLWRVCFLAGEERGRCFTIEYVMPMNSQMTSESTVNVLKMIRSATPFPLVSLFFMFIGFILSNIGHIRPHRTILAFVSGIFFILSGLSLVVGLVLYISSINDEMLNRTKDAETYFNYKYGWSFAFAAISFLLTESAGVMSVYLFMKRYTAE
Regarding B1, the stoichiometry N (γ5 subunits per AMPAR tetramer) in assay [1] was 2.

B2: cornichon-2 (CNIH2), endogenous human (natural protein)
chain: MAFTFAAFCYMLTLVLCASLIFFVIWHIIAFDELRTDFKNPIDQGNPARARERLKNIERICCLLRKLVVPEYSIHGLFCLMFLCAAEWVTLGLNIPLLFYHLWRYFHRPADGSEVMYDAVSIMNADILNYCQKESWCKLAFYLLSFFYYLYSMVYTLVSF
As for B2, the time constant of recovery from desensitization τRecDes, two-pulse protocol, HEK293 cells cotransfected with GluA2 and wild-type human CNIH2 in assay [2] is 21.7 ms. Besides, the time constant of recovery from desensitization τRecDes, two-pulse protocol, HEK293 cells cotransfected with GluA2–γ5 and wild-type human CNIH2 in assay [3] is 36.8 ms. Besides, in assay [4], the deactivation time constant τDeact, whole-cell patch clamp, HEK293 cells cotransfected with GluA2 and wild-type human CNIH2, 2 ms 3 mM Glu, −60 mV is 10.8 ms; the desensitization time constant τDes, whole-cell patch clamp, HEK293 cells cotransfected with GluA2 and wild-type human CNIH2, 500 ms 3 mM Glu, −60 mV was 28 ms. Further, in assay [5], the deactivation time constant τDeact, whole-cell patch clamp, HEK293 cells cotransfected with GluA2–γ5 and wild-type human CNIH2, 2 ms 3 mM Glu, −60 mV is 4.21 ms; the desensitization time constant τDes, whole-cell patch clamp, HEK293 cells cotransfected with GluA2–γ5 and wild-type human CNIH2, 500 ms 3 mM Glu, −60 mV worked out at 14.8 ms. For the same molecule, the stoichiometry N (CNIH2 subunits per GluA2–γ5 tetramer) in assay [6] turned out to be 2. For the same molecule, the fraction of nondesensitized channels ISS/IMax, whole-cell patch clamp, HEK293 cells cotransfected with GluA2 and wild-type human CNIH2 in assay [7] amounted to 0.211. In addition, the fraction of nondesensitized channels ISS/IMax, whole-cell patch clamp, HEK293 cells cotransfected with GluA2–γ5 and wild-type human CNIH2 in assay [8] was determined as 0.06.

These data come from PMC10584687.
